# Source: patent US20240118272A1
# Columns and labels:
# [1] = target: CD9(ECD)-ALP conjugate (human; bovine); test: HI-1000 capture immunoassay; secondary calibrator C3; mean of 3 aliquots
# [2] = target: CD9(FL)-ALP conjugate (human; bovine); test: HI-1000 capture immunoassay; calibrator C5, 43.86 mU/L; run 2
# [3] = target: CD9(FL)-ALP conjugate (human; bovine); test: HI-1000 capture immunoassay; calibrator C5, 30 ng/mL; run 1
# [4] = target: CD9(ECD)-ALP conjugate (human; bovine); test: HI-1000 capture immunoassay; secondary calibrator C4, 129.62 U/L; run 2
# [5] = target: CD9(FL)-ALP conjugate (human; bovine); test: HI-1000 capture immunoassay; calibrator C4, 21.93 mU/L; mean of 3
# [6] = target: CD9(ECD)-ALP conjugate (human; bovine); test: HI-1000 capture immunoassay; secondary calibrator C1, 1.02 U/L; run 3
# [7] = target: CD9(FL)-ALP conjugate (human; bovine); test: HI-1000 capture immunoassay; calibrator C4, 21.93 mU/L; run 2
# [8] = target: CD9(ECD)-ALP conjugate (human; bovine); test: HI-1000 capture immunoassay; primary calibrator C5, 159.87 ng/mL; mean of 3
# [9] = target: CD9(FL)-ALP conjugate (human; bovine); test: HI-1000 capture immunoassay; calibrator C5, 43.86 mU/L; run 3
# [10] = target: CD9(ECD)-ALP conjugate (human; bovine); test: HI-1000 capture immunoassay; secondary calibrator C3, 14.32 U/L; run 2
# [11] = target: CD9(FL)-ALP conjugate (human; bovine); test: HI-1000 capture immunoassay; calibrator C2, 3.7 ng/mL; run 1
# [12] = target: CD9(ECD)-ALP conjugate (human; bovine); test: HI-1000 capture immunoassay; thawed aliquot 3 of secondary calibrator C3
# [13] = target: CD9(ECD)-ALP conjugate (human; bovine); test: HI-1000 capture immunoassay; thawed aliquot 1 of secondary calibrator C4
# [14] = target: CD9(FL)-ALP conjugate (human; bovine); test: HI-1000 capture immunoassay; calibrator C2, 5.48 mU/L; mean of 3
# [15] = target: CD9(FL)-ALP conjugate (human; bovine); test: HI-1000 capture immunoassay; calibrator C3, 7.4 ng/mL; run 1
# [16] = target: CD9(ECD)-ALP conjugate (human; bovine); test: HI-1000 capture immunoassay; primary calibrator C3, 15.65 ng/mL; mean of 3
# [17] = target: CD9(ECD)-ALP conjugate (human; bovine); test: HI-1000 capture immunoassay; thawed aliquot 2 of secondary calibrator C3
# [18] = target: CD9(ECD)-ALP conjugate (human; bovine); test: HI-1000 capture immunoassay; thawed aliquot 3 of secondary calibrator C4
# [19] = target: CD9(FL)-ALP conjugate (human; bovine); test: HI-1000 capture immunoassay; calibrator C3, 7.4 ng/mL; mean of 3
# [20] = target: CD9(FL)-ALP conjugate (human; bovine); test: HI-1000 capture immunoassay; calibrator C3, 10.96 mU/L; run 1
# [21] = target: CD9(ECD)-ALP conjugate (human; bovine); test: HI-1000 capture immunoassay; secondary calibrator C2, 3.84 U/L; mean of 3
# [22] = target: CD9(ECD)-ALP conjugate (human; bovine); test: HI-1000 capture immunoassay; secondary calibrator C2, 3.84 U/L; run 3
# [23] = target: CD9(ECD)-ALP conjugate (human; bovine); test: HI-1000 capture immunoassay; primary calibrator C1, 1.52 ng/mL; run 1
# [24] = target: CD9(ECD)-ALP conjugate (human; bovine); test: HI-1000 capture immunoassay; thawed aliquot 1 of secondary calibrator C2
# [25] = target: CD9(FL)-ALP conjugate (human; bovine); test: HI-1000 capture immunoassay; calibrator C5, 43.86 mU/L; mean of 3
# [26] = target: CD9(ECD)-ALP conjugate (human; bovine); test: HI-1000 capture immunoassay; secondary calibrator C1, 1.02 U/L; run 2
# [27] = target: CD9(ECD)-ALP conjugate (human; bovine); test: HI-1000 capture immunoassay; thawed aliquot 1 of secondary calibrator C1
# [28] = target: CD9(FL)-ALP conjugate (human; bovine); test: HI-1000 capture immunoassay; calibrator C2, 3.7 ng/mL; run 2
# [29] = target: CD9(ECD)-ALP conjugate (human; bovine); test: HI-1000 capture immunoassay; thawed aliquot 1 of secondary calibrator C3
# [30] = target: CD9(ECD)-ALP conjugate (human; bovine); test: HI-1000 capture immunoassay; primary calibrator C2, 4.89 ng/mL; run 3
# [31] = target: CD9(ECD)-ALP conjugate (human; bovine); test: HI-1000 capture immunoassay; secondary calibrator C1; mean of 3 aliquots
# [32] = target: CD9(ECD)-ALP conjugate (human; bovine); test: HI-1000 capture immunoassay; thawed aliquot 2 of secondary calibrator C2
# [33] = target: CD9(ECD)-ALP conjugate (human; bovine); test: HI-1000 capture immunoassay; primary calibrator C3, 15.65 ng/mL; run 3
# [34] = target: CD9(ECD)-ALP conjugate (human; bovine); test: HI-1000 capture immunoassay; primary calibrator C5, 159.87 ng/mL; run 2
# [35] = target: CD9(ECD)-ALP conjugate (human; bovine); test: HI-1000 capture immunoassay; primary calibrator C1, 1.52 ng/mL; run 3
# [36] = target: CD9(ECD)-ALP conjugate (human; bovine); test: HI-1000 capture immunoassay; secondary calibrator C5, 387.01 U/L; mean of 3
# [37] = target: CD9(ECD)-ALP conjugate (human; bovine); test: HI-1000 capture immunoassay; thawed aliquot 2 of secondary calibrator C4
# [38] = target: CD9(FL)-ALP conjugate (human; bovine); test: HI-1000 capture immunoassay; calibrator C3, 10.96 mU/L; run 3
# [39] = target: CD9(FL)-ALP conjugate (human; bovine); test: HI-1000 capture immunoassay; calibrator C4, 15 ng/mL; run 2
# [40] = target: CD9(ECD)-ALP conjugate (human; bovine); test: HI-1000 capture immunoassay; primary calibrator C3, 15.65 ng/mL; run 2
# Chain of CD9(ECD)-ALP conjugate (human; bovine) (chain, as listed by the source, chain 1 of 2): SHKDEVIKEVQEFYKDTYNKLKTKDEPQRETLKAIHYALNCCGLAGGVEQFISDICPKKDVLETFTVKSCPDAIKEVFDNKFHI
# Chain of CD9(ECD)-ALP conjugate (human; bovine) (P19111 20-506, chain 2 of 2): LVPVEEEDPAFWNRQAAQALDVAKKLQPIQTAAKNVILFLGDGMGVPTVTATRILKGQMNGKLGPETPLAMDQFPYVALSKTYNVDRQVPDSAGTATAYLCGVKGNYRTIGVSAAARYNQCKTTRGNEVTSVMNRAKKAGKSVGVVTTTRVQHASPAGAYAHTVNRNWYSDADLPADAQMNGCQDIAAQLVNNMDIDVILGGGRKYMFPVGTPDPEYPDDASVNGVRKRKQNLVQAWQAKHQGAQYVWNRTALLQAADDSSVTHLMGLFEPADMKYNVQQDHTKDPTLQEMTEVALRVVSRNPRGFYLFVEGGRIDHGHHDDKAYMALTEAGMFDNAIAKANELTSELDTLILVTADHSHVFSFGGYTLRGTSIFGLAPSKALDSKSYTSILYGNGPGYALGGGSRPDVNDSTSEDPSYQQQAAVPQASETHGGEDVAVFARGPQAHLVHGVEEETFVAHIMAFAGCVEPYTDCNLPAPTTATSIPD
# Chain of CD9(FL)-ALP conjugate (human; bovine) (chain, as listed by the source, chain 1 of 2): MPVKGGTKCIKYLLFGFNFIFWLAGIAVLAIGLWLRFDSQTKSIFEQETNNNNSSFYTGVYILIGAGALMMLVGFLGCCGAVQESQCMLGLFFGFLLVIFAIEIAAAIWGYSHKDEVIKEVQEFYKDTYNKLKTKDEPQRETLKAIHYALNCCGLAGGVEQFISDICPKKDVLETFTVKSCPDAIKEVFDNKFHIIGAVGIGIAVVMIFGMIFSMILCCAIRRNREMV
# Chain of CD9(FL)-ALP conjugate (human; bovine) (P19111 20-506, chain 2 of 2): as the sequence (P19111 20-506, chain 2 of 2) above
substance,measurement,setting,value
anti-CD9 antibody (Clone: H19a),Count value (av),[1],3900 count
same,Count value,[2],25600 count
same,Count value,[3],24600 count
same,Count value,[4],69400 count
same,Count value (av),[5],13300 count
same,Count value,[6],912 count
same,Count value,[7],13200 count
same,Count value (av),[8],69800 count
same,Count value,[9],27800 count
same,Count value,[10],8240 count
same,Count value,[11],5360 count
same,Count value,[12],3800 count
same,Count value,[13],11400 count
same,Count value (av),[14],3640 count
same,Count value,[15],7040 count
same,Count value (av),[16],7190 count
same,Count value,[17],4080 count
same,Count value,[18],11400 count
same,Count value (av),[19],7020 count
same,Count value,[20],6330 count
same,Count value (av),[21],2390 count
same,Count value,[22],2450 count
same,Count value,[23],1080 count
same,Count value,[24],1560 count
same,Count value (av),[25],26400 count
same,Count value,[26],937 count
same,Count value,[27],818 count
same,Count value,[28],8680 count
same,Count value,[29],3830 count
same,Count value,[30],2540 count
same,Count value (av),[31],811 count
same,Count value,[32],1580 count
same,Count value,[33],6980 count
same,Count value,[34],67600 count
same,Count value,[35],1120 count
same,Count value (av),[36],216000 count
same,Count value,[37],12000 count
same,Count value,[38],6810 count
same,Count value,[39],13800 count
same,Count value,[40],7230 count
